Experimental data taken from the supplement of paper PMC9170038.

Tested on: MS2 coat protein
Assay: apparent KD of MS2 coat protein; designed switch direction (-1 OFF switch, 1 ON switch): -1; higher = weaker reporter binding
Method in brief: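 RNA switches sharing common flanks were transcribed by stalled E. coli RNA polymerase on Illumina chips. A doubling series of SNAP-549-labelled MS2 coat protein, from 0.7 or 1.5 nM to 3 µM, was applied in Tris-HCl pH 7.5 buffer with KCl, MgCl2, BSA, DTT, tRNA and Tween-20. Each step lasted 0.8–1.5 h at the bottom of the series and 10–20 min at the top. Normalised cluster fluorescence was curve-fitted, giving apparent KD as the per-design median over clusters.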

[1] = input ligand: microRNA oligo, concentration not stated
[2] = Eterna round: R95, input ligand: FMN 200 uM
[3] = Eterna round: R95, input ligand: microRNA oligo, concentration not stated
[4] = Eterna round: R95, input ligand: none

Row | Sequence | apparent KD of MS2 coat protein (input ligand: FMN 200 uM) [µM] | apparent KD of MS2 coat protein [1] [µM] | apparent KD of MS2 coat protein (input ligand: none) [µM] | apparent KD of MS2 coat protein [2] [µM] | apparent KD of MS2 coat protein [3] [µM] | apparent KD of MS2 coat protein [4] [µM]
1 | CAGUCGAUAAGAUCAAUUAAUUAACAUGAGGAUCACCCAUGUGAGGAUAUCAGCUCGAUUAGAGCUGAGAAGGCACAACGACUG [ExNG3/17-A1] (Eterna round: R96, puzzle: Exclusion NG 3) | 0.232 | 0.0313 | 0.0468 | – | – | –
2 | GGAUAUAAGGAAGGAUAUGAGCGCAACUGACGAUCAGAAGGUCCACAUGAGGAUCACCCAUGUGAUCUAUCAAUAUUAUACAUG [Prohibition 94 - Jieux - Exclusion NG 1] (Eterna round: R96, puzzle: Exclusion NG 1) | 0.264 | 0.0529 | 0.115 | – | – | –
3 | UAUUAGCAAGCGAGAUCCCACAUGAGGAUCACCCAUGUGCAUCCAGAAUUACUGGGUGCAAAAGCUCGUCUUAUAUA [Winner reversed engineered 2] (Eterna round: R97, puzzle: Sensor, turn-off variant 1) | 0.0624 | – | 0.0581 | – | – | –
4 | GGACAACAUGAGGAUCACCCAUGUCAGGAUAUGACGGCGUCGGCGAAAGCGGAGGCGGUCAGAAGGGACGGUAA [AK-MS2ROC-r4-exclusion1-10.1] (Eterna round: R97, puzzle: Exclusion 1) | 0.115 | – | 0.0519 | – | – | –
5 | CUUCUCUCAUGGAAUCCUGACAUGAGGAUCACCCAUGUUGCUGAGGAUAUCCAGCGCUACGGCGCGGAGAAGGCGGCUCUUAAA [Enties] (Eterna round: R96, puzzle: Exclusion NG 3) | 0.0129 | 0.01 | 0.0172 | – | – | –
6 | GAUUGACAUGAGGAUCACCCAUGUGAGGAUAUCGGCUGGACCGUGUUGGCUUGCUUCUCGAGAAGGCGCAUAGG [Exclusion 1 V51] (puzzle: Exclusion 1) | – | – | – | 0.0327 | 0.0339 | 0.036
7 | UUUAUGUCAGGAUAUGAUUAGAUCUACUUCGGUAGAUCUAAUCAGAAGGGACAUGAGGAUCACCCAUGUUUUUU [Ex4 - 3 - 16] (puzzle: Exclusion 4) | – | – | – | – | 0.0416 | –
8 | GUGUAGUCAGGAUAUACAUAGGAAGAGAAUAUAAUAUAAGUACAUGAGGAUCACCCAUGUAGAAGGGACAGUGU [Excluse me!! 8 - Jieux - Exclusion 2] (puzzle: Exclusion 2) | – | – | – | – | 0.0294 | –
9 | GGCAGACAUGAGGAUCACCCAUGUCAGGAUAUGCGGCGAAGUACAGUUAGUGCAUUUGGUAGAAGGGACAAGGA [Eternabot (L1) Solution 100] (Eterna round: R97, puzzle: Exclusion 1) | 0.0298 | – | 0.0325 | – | – | –
10 | CGCACCACAUGAGGAUCAAACAUGAGGAUCACCCAUGUAUAACAAGCUUUUUGCUCGUCUUAUAAAUAUGUGGUGCG [Electric Eye 3 - Jieux - Sensor, turn-off variant 1] (Eterna round: R97, puzzle: Sensor, turn-off variant 1) | 0.0139 | – | 0.0142 | – | – | –
11 | GGUUGGCGAGGAUAUACAUGAGGAUCACCCAUGUGAUAGAAAAAAGUGAGGAAGAAAAGUAGAAGGCGCUGACG [salish99_ex3_r3_009] (puzzle: Exclusion 3) | – | – | – | 0.723 | 0.0501 | 0.187
12 | UUAAUUAAUUAAUUAGAUCCUCACAUGAGGAUCACCCAUGUGCAGGAUAUCAGCUCGAUUAGAGCUGAGAAGGGCACUAUUAAU [ExNG3/10-B4] (Eterna round: R96, puzzle: Exclusion NG 3) | 0.0561 | 0.085 | 0.127 | – | – | –
13 | AAUAACAGAGGAUAUACUGUUUUAUGUGUUUAUUGUUUUAAACAUGAGGAUCACCCAUGUAGAAGGCUGAAUGA [JMF 58] (puzzle: Exclusion 2) | – | – | – | – | 0.0364 | –
14 | GUAGAGUAAGGAUAUGGUGAAUAGGAUAGAAUGGUUAGAAACUAGAAGGUACAUGAGGAUCACCCAUGUAAUGU [Excluse me!!!! 23 - Jieux - Exclusion 4] (puzzle: Exclusion 4) | – | – | – | – | 0.0208 | –
15 | GCUAGGAAUGUCAGGAUAUGCAGAUCCUUGGAUCUGCAGAAGGGACAUGAGGAUCACCCAUGUGCUAACCUAGC [Mat - Exclusion 4 - JL Mod - D7] (Eterna round: R97, puzzle: Brourd's mod of Exclusion 4) | 0.11 | – | 0.0243 | – | – | –
16 | AAACGUGCGAAGGAUAUCCAUCCACCCUGGAAAGGAGAAGGUCGCACAUGAGGAUCACCCAUGUGUGCCUAAAA [Zalave] (puzzle: Exclusion 6) | – | – | – | 0.0266 | 0.0114 | 0.0118
17 | AGACAGUCAGGAUAUACAUGAGGAUCACCCAUGUUGAGAUGAGAAAGGGCAGGAAGAGGUAGAAGGGACAAGAA [JR_Exclu3_Sub035] (puzzle: Exclusion 3) | – | – | – | 0.0283 | 0.0192 | 0.0248

Row | Sequence | apparent KD of MS2 coat protein (input ligand: FMN 200 uM) [µM] | apparent KD of MS2 coat protein [1] [µM] | apparent KD of MS2 coat protein (input ligand: none) [µM] | apparent KD of MS2 coat protein [2] [µM] | apparent KD of MS2 coat protein [3] [µM] | apparent KD of MS2 coat protein [4] [µM]
18 | CAACCACAUGAGGAUCACCCAUGUGAGGAUAUGAUACUAUGUACUUCGGUACAUAGUAUCAGAAGGCACAGGUG [Ex1-3: 60] (puzzle: Exclusion 1) | – | – | – | – | 0.0832 | –
19 | GGUGCGUUUGUGAGGAUAUGCUGGUCCUUGGUUCGGCAGAAGGCACAUGAGGAUCACCCAUGUGGUGUCGCACC [salish99_Bmod_Ex4_049] (puzzle: Brourd's mod of Exclusion 4) | – | – | – | – | 0.0659 | –
20 | ACGUUGUCAGGAUAUCGUUAAUUUAGUUGUUUGUAUUAGUUCGAGAAGGGACAUGAGGAUCACCCAUGUUUGCA [Ex4 #31] (Eterna round: R97, puzzle: Exclusion 4) | 0.0327 | – | 0.0263 | – | – | –
21 | AUUGUAUGAUACCUCUAAUACAUGAGGAUCACCCAUGUUAUCGAGGAUAUGCAGAAUAGAUUAGAGCAGAAGGCGAAGUAAUAU [JR_ExcNG3_Sub025] (Eterna round: R96, puzzle: Exclusion NG 3) | 0.015 | 0.00908 | 0.0136 | – | – | –
22 | CGUCUGUGAGGAUAUGGUAUCGUUUACAUGAGGAUCACCCAUGUUACAUGGGACUAGAGACUAGAAGGUACGAACG [EX5 #49] (Eterna round: R97, puzzle: Exclusion 5) | 0.212 | – | 0.32 | – | – | –
23 | UGGUAGUUAGGAUAUACAUGAGGAUCACCCAUGUACGGGUGCAGAAAAGAAAGCCUUCGUAGAAGGAACACCUG [Aaredima] (Eterna round: R97, puzzle: Exclusion 3) | 0.0691 | – | 0.0626 | – | – | –
24 | GUCGGACAUGAGGAUCACCCAUGUGAGGAUAUCCUUUAGAGCUAUUAGUAGAUGCUUAGGAGAAGGCACUAGGG [Eternabot (L2) Solution 17] (Eterna round: R97, puzzle: Exclusion 1) | 0.0939 | – | 0.314 | – | – | –
25 | GAUUAUGCAGGCUUUAGGGACAUGAGGAUCACCCAUGUUCGUCUUAUUGAUCUAGGUACGCUGACGUACCUAGAUCU [JL-sv1-2.34 Brourd mod] (puzzle: Sensor v3, turn-off variant 1) | – | – | – | 0.0193 | 0.0425 | 0.0204
26 | GCCUUAUCCGUCAGGAUAUACAGCCGCUCGUUGUUGUAGAAGGGACAUGAGGAUCACCCAUGUACGUACCAUUG [alecazam4] (Eterna round: R97, puzzle: Brourd's mod of Exclusion 4) | 0.0272 | – | 0.0227 | – | – | –
27 | CCGGGUCACGUAAGGAUAUCACGCGCAGACGCUAGUGAGAAGGUACAUGAGGAUCACCCAUGUUCCAUUCGCAG [BmEX4 C.5] (Eterna round: R97, puzzle: Brourd's mod of Exclusion 4) | 0.0171 | – | 0.0138 | – | – | –
28 | ACAGUUUUGCAAGGAUAUCGUUUUAGUUUAUUACGAGAAGGUGCUUAAGUAAUUUCUUUGGGUUGACAUGAGGAUCACCCAUGU [JR_ExcNG1_Sub058] (Eterna round: R96, puzzle: Exclusion NG 1) | 0.16 | 0.128 | 0.139 | – | – | –
29 | GUAUGGAGAGUGAGGAUAUUUCCUGAGUGAUCAGCGAAGAAGGUACAUGAGGAUCACCCAUGUAGGUGGACUAA [Eternabot (L1) Solution 14] (Eterna round: R97, puzzle: Brourd's mod of Exclusion 4) | 0.0824 | – | 0.0705 | – | – | –
30 | AAGGAUCGAGGAUAUACAUAGAUACAGAUUCAUGUAGAACUACAUGAGGAUCACCCAUGUAGAAGGCGAUCCUA [Mat - Same state - Mayanna Mod - D120] (Eterna round: R96, puzzle: Exclusion 2) | 0.367 | 0.0311 | 0.0413 | – | – | –
31 | CUCCGGCAUGUAGGAUAUGGAUCCGAUUAGGAUCCAGAAGGACAUGAGGAUCACCCAUGUACAUGUAAACAGUCAUCACCGGAC [salish99_ExNG1_r04_202] (Eterna round: R96, puzzle: Exclusion NG 1) | 0.284 | 0.0299 | 0.0442 | – | – | –
32 | AGGUCCUUCUGGAGACAUGAGGAUCACCCAUGUCGAGUCAGCGAGGAUAUCGGUAAGACAUGUGAUGAGAAGGCGCAGACCGAU [Ex NG3 #43] (Eterna round: R96, puzzle: Exclusion NG 3) | 0.0172 | 0.0119 | 0.0127 | – | – | –
33 | UACAUGAGGAUCACCCAUGUUUUGUCGUGUAUGGUAUUUAUCUAGGAUAUCAAUUUAGUUAUUUAUGAGAAGGAGAAUAUUAAU [JMF's solution 18] (Eterna round: R96, puzzle: Exclusion NG 3) | 0.0336 | 0.0328 | 0.0431 | – | – | –
34 | AACUCACAUGAGGAUCACCCAUGUGAGGAUAUGGAUUCGCUGGCCGUAGCCAGUGGAUCCAGAAGGCGCAUGAU [JL-ex1-4.10] (Eterna round: R97, puzzle: Exclusion 1) | 0.0231 | – | 0.0212 | – | – | –
